Results as given in EP4803149A2 (Lyvgen Biopharma Holdings Limited, dated 2026).

What follows are binders tested against CD3 (human) (assay: ELISA or FCM (as in Example 2)).

Binder	EC50 [µg/mL]
Anti-CD3 Ly305 (antibody, V domains shown, mAb; also called parent anti-CD3 mAb) VH: EVQLVESGGGLVQPGGSLRLSCAASGFTFSTYAMNWVRQAPGKGLEWVGRIRSKYNNYATYYADSVKGRFTISRDDSKNSLYLQMNSLKTEDTAVYYCVRHGNFGNSYVSWFAYWGQGTLVTVSS VL: QAVVTQEPSLTVSPGGTVTLTCRSSTGAVTTSNYANWVQQKPGQAPRGLIGGTNKRAPWTPARFSGSLLGGKAALTITGAQAEDEADYYCALWYSNLWVFGGGTKLTVL	0.03
Ly2278 (bispecific antibody, CD19/CD3; central CD3 Fv) chain 1: QVQLQQSGAELVRPGSSVKISCKASGYAFSSYWMNWVKQRPGQGLEWIGQIWPGDGDTNYNGKFKGKATLTADESSSTAYMQLSSLASEDSAVYFCARRETTTVGRYYYAMDYWGQGTTVTVSSASTKGPSVFPLAPSSKSTSGGTAALGCLVKDYFPEPVTVSWNSGALTSGVHTFPAVLQSSGLYSLSSVVTVPSSSLGTQTYICNVNHKPSNTKVDKKVEPKSCGGGGSGGGGSGGGGSGGGGSEVQLVESGGGLVQPGGSLRLSCAASGFTFSTYAMNWVRQAPGKGLEWVGRIRSKYNNYATYYADSVKGRFTISRDDSKNSLYLQMNSLKTEDTAVYYCVRHGNFGNSYVSWFAYWGQGTLVTVSSGGGGSDKTHTCPPCPAPEAAGPSVFLFPPKPKDTLMISRTPEVTCVVVDVSHEDPEVKFNWYVDGVEVHNAKTKPREEQYNSTYRVVSVLTVLHQDWLNGKEYKCKVSNKALPAPIEKTISKAKGQPREPQVYTLPPSREEMTKNQVSLWCLVKGFYPSDIAVEWESNGQPENNYKTTPPVLDSDGSFFLYSKLTVDKSRWQQGNVFSCSVMHEALHNHYTQKSLSLSPG chain 2: QVQLQQSGAELVRPGSSVKISCKASGYAFSSYWMNWVKQRPGQGLEWIGQIWPGDGDTNYNGKFKGKATLTADESSSTAYMQLSSLASEDSAVYFCARRETTTVGRYYYAMDYWGQGTTVTVSSASTKGPSVFPLAPSSKSTSGGTAALGCLVKDYFPEPVTVSWNSGALTSGVHTFPAVLQSSGLYSLSSVVTVPSSSLGTQTYICNVNHKPSNTKVDKKVEPKSCGGGGSGGGGSGGGGSGGGGSQAVVTQEPSLTVSPGGTVTLTCRSSTGAVTTSNYANWVQQKPGQAPRGLIGGTNKRAPWTPARFSGSLLGGKAALTITGAQAEDEADYYCALWYSNLWVFGGGTKLTVLGGGGSDKTHTCPPCPAPEAAGPSVFLFPPKPKDTLMISRTPEVTCVVVDVSHEDPEVKFNWYVDGVEVHNAKTKPREEQYNSTYRVVSVLTVLHQDWLNGKEYKCKVSNKALPAPIEKTISKAKGQPREPQVYTLPPSREEMTKNQVSLSCAVKGFYPSDIAVEWESNGQPENNYKTTPPVLDSDGSFFLVSKLTVDKSRWQQGNVFSCSVMHEALHNRFTQKSLSLSPG chain 3: not shown	1.46
Ly1965 (bispecific antibody, B7H3/CD3; central CD3 Fv) chain 1: QVQLVQSGAEVKKPGASVKVSCKASGYTFTSYVMHWVRQKPGQGLEWIGYINPYNEGTESTDKFKGRATMTSDKSTSTVYMELSSLRSEDTAVYYCASIYYGYEGTYFGVWGQGTLVTVSSASTKGPSVFPLAPSSKSTSGGTAALGCLVKDYFPEPVTVSWNSGALTSGVHTFPAVLQSSGLYSLSSVVTVPSSSLGTQTYICNVNHKPSNTKVDKKVEPKSCGGGGSGGGGSGGGGSGGGGSEVQLVESGGGLVQPGGSLRLSCAASGFTFSTYAMNWVRQAPGKGLEWVGRIRSKYNNYATYYADSVKGRFTISRDDSKNSLYLQMNSLKTEDTAVYYCVRHGNFGNSYVSWFAYWGQGTLVTVSSGGGGSDKTHTCPPCPAPEAAGPSVFLFPPKPKDTLMISRTPEVTCVVVDVSHEDPEVKFNWYVDGVEVHNAKTKPREEQYNSTYRVVSVLTVLHQDWLNGKEYKCKVSNKALPAPIEKTISKAKGQPREPQVYTLPPSREEMTKNQVSLWCLVKGFYPSDIAVEWESNGQPENNYKTTPPVLDSDGSFFLYSKLTVDKSRWQQGNVFSCSVMHEALHNHYTQKSLSLSPG chain 2: QVQLVQSGAEVKKPGASVKVSCKASGYTFTSYVMHWVRQKPGQGLEWIGYINPYNEGTESTDKFKGRATMTSDKSTSTVYMELSSLRSEDTAVYYCASIYYGYEGTYFGVWGQGTLVTVSSASTKGPSVFPLAPSSKSTSGGTAALGCLVKDYFPEPVTVSWNSGALTSGVHTFPAVLQSSGLYSLSSVVTVPSSSLGTQTYICNVNHKPSNTKVDKKVEPKSCGGGGSGGGGSGGGGSGGGGSQAVVTQEPSLTVSPGGTVTLTCRSSTGAVTTSNYANWVQQKPGQAPRGLIGGTNKRAPWTPARFSGSLLGGKAALTITGAQAEDEADYYCALWYSNLWVFGGGTKLTVLGGGGSDKTHTCPPCPAPEAAGPSVFLFPPKPKDTLMISRTPEVTCVVVDVSHEDPEVKFNWYVDGVEVHNAKTKPREEQYNSTYRVVSVLTVLHQDWLNGKEYKCKVSNKALPAPIEKTISKAKGQPREPQVYTLPPSREEMTKNQVSLSCAVKGFYPSDIAVEWESNGQPENNYKTTPPVLDSDGSFFLVSKLTVDKSRWQQGNVFSCSVMHEALHNRFTQKSLSLSPG chain 3: EIVLTQSPATLSLSPGERATLSCRASSSVSYMHWYQQKPGQAPRPWIYATSNLASGIPARFSGSRSGTDYTLTISSLEPEDFAVYYCQQWSSNTLTFGGGTKVEIKRTVAAPSVFIFPPSDEQLKSGTASVVCLLNNFYPREAKVQWKVDNALQSGNSQESVTEQDSKDSTYSLSSTLTLSKADYEKHKVYACEVTHQGLSSPVTKSFNRGEC	0.419
Ly2128 (multi-specific antibody, Tri-specific B7H3/CD3/CD28; central CD3 Fv, terminal CD28 Fv) chain 1: QVQLVQSGAEVKKPGASVKVSCKASGYTFTSYVMHWVRQKPGQGLEWIGYINPYNEGTESTDKFKGRATMTSDKSTSTVYMELSSLRSEDTAVYYCASIYYGYEGTYFGVWGQGTLVTVSSASTKGPSVFPLAPSSKSTSGGTAALGCLVKDYFPEPVTVSWNSGALTSGVHTFPAVLQSSGLYSLSSVVTVPSSSLGTQTYICNVNHKPSNTKVDKKVEPKSCGGGGSGGGGSGGGGSGGGGSEVQLVESGGGLVQPGGSLRLSCAASGFTFSTYAMNWVRQAPGKGLEWVGRIRSKYNNYATYYADSVKGRFTISRDDSKNSLYLQMNSLKTEDTAVYYCVRHGNFGNSYVSWFAYWGQGTLVTVSSGGGGSDKTHTCPPCPAPEAAGPSVFLFPPKPKDTLMISRTPEVTCVVVDVSHEDPEVKFNWYVDGVEVHNAKTKPREEQYNSTYRVVSVLTVLHQDWLNGKEYKCKVSNKALPAPIEKTISKAKGQPREPQVYTLPPSREEMTKNQVSLWCLVKGFYPSDIAVEWESNGQPENNYKTTPPVLDSDGSFFLYSKLTVDKSRWQQGNVFSCSVMHEALHNHYTQKSLSLSPGGGGGSGGGGSGGGGSGGGGSQVQLVQSGAEVKKPGASVKVSCKASGYTFTSYYIHWVRQAPGQGLEWIGCIYPGNVNTNYNEKFKDRATLTVDTSISTAYMELSRLRSDDTAVYFCTRSHYGLDWNFDVWGQGTTVTVSS chain 2: not shown chain 3: EIVLTQSPATLSLSPGERATLSCRASSSVSYMHWYQQKPGQAPRPWIYATSNLASGIPARFSGSRSGTDYTLTISSLEPEDFAVYYCQQWSSNTLTFGGGTKVEIKRTVAAPSVFIFPPSDEQLKSGTASVVCLLNNFYPREAKVQWKVDNALQSGNSQESVTEQDSKDSTYSLSSTLTLSKADYEKHKVYACEVTHQGLSSPVTKSFNRGEC	1.08
Ly1963 (multi-specific antibody, B7H3/CD3/CD137 tri-specific; central CD3 Fv, terminal CD137 Fv) chain 1: QVQLVQSGAEVKKPGASVKVSCKASGYTFTSYVMHWVRQKPGQGLEWIGYINPYNEGTESTDKFKGRATMTSDKSTSTVYMELSSLRSEDTAVYYCASIYYGYEGTYFGVWGQGTLVTVSSASTKGPSVFPLAPSSKSTSGGTAALGCLVKDYFPEPVTVSWNSGALTSGVHTFPAVLQSSGLYSLSSVVTVPSSSLGTQTYICNVNHKPSNTKVDKKVEPKSCGGGGSGGGGSGGGGSGGGGSEVQLVESGGGLVQPGGSLRLSCAASGFTFSTYAMNWVRQAPGKGLEWVGRIRSKYNNYATYYADSVKGRFTISRDDSKNSLYLQMNSLKTEDTAVYYCVRHGNFGNSYVSWFAYWGQGTLVTVSSGGGGSDKTHTCPPCPAPEAAGPSVFLFPPKPKDTLMISRTPEVTCVVVDVSHEDPEVKFNWYVDGVEVHNAKTKPREEQYNSTYRVVSVLTVLHQDWLNGKEYKCKVSNKALPAPIEKTISKAKGQPREPQVYTLPPSREEMTKNQVSLWCLVKGFYPSDIAVEWESNGQPENNYKTTPPVLDSDGSFFLYSKLTVDKSRWQQGNVFSCSVMHEALHNHYTQKSLSLSPGGGGGSGGGGSGGGGSGGGGSQVQLVQSGAEVKKPGASVKVSCKASGYTFAGFEMHWVRQAPGQGLEWMGAIDPKTGGTDYNQKFKDRVTMTRDTSISTAYMELSRLRSDDTAVYYCARDLGYFDVWGQGTLVTVSS chain 2: QVQLVQSGAEVKKPGASVKVSCKASGYTFTSYVMHWVRQKPGQGLEWIGYINPYNEGTESTDKFKGRATMTSDKSTSTVYMELSSLRSEDTAVYYCASIYYGYEGTYFGVWGQGTLVTVSSASTKGPSVFPLAPSSKSTSGGTAALGCLVKDYFPEPVTVSWNSGALTSGVHTFPAVLQSSGLYSLSSVVTVPSSSLGTQTYICNVNHKPSNTKVDKKVEPKSCGGGGSGGGGSGGGGSGGGGSQAVVTQEPSLTVSPGGTVTLTCRSSTGAVTTSNYANWVQQKPGQAPRGLIGGTNKRAPWTPARFSGSLLGGKAALTITGAQAEDEADYYCALWYSNLWVFGGGTKLTVLGGGGSDKTHTCPPCPAPEAAGPSVFLFPPKPKDTLMISRTPEVTCVVVDVSHEDPEVKFNWYVDGVEVHNAKTKPREEQYNSTYRVVSVLTVLHQDWLNGKEYKCKVSNKALPAPIEKTISKAKGQPREPQVYTLPPSREEMTKNQVSLSCAVKGFYPSDIAVEWESNGQPENNYKTTPPVLDSDGSFFLVSKLTVDKSRWQQGNVFSCSVMHEALHNHYTQKSLSLSPGGGGGSGGGGSGGGGSGGGGSDIQMTQSPSSLSASVGDRVTITCRASQDIRSNLNWYQQKPGGAVKLLIYYTSRLHSGVPSRFSGSGSGTDYTLTISSLQPEDFATYFCQQSEKLPRTFGGGTKVEIR chain 3: EIVLTQSPATLSLSPGERATLSCRASSSVSYMHWYQQKPGQAPRPWIYATSNLASGIPARFSGSRSGTDYTLTISSLEPEDFAVYYCQQWSSNTLTFGGGTKVEIKRTVAAPSVFIFPPSDEQLKSGTASVVCLLNNFYPREAKVQWKVDNALQSGNSQESVTEQDSKDSTYSLSSTLTLSKADYEKHKVYACEVTHQGLSSPVTKSFNRGEC	0.74
